Results reported in publication PMC3645732, “A Differential Redox Regulation of the Pathways Metabolizing Glyceraldehyde-3-Phosphate Tunes the Production of Reducing Power in the Cytosol of Plant Cells” (International Journal of Molecular Sciences, 2013).

Substrate: NC(=O)c1ccc[n+]([C@@H]2O[C@H](COP(=O)([O-])OP(=O)(O)OC[C@H]3O[C@@H](n4cnc5c(N)ncnc54)[C@H](O)[C@@H]3O)[C@@H](O)[C@H]2O)c1
Assay: purified protein
Type: biochemical, Triticum aestivum

B1: Ga3PDHase (phosphorylating NAD+-dependent glyceraldehyde-3-phosphate dehydrogenase, EC 1.2.1.12) (Triticum aestivum) (protein)
chain: MGKIKIGINGFGRIGRLVARVALQSPDVELVAVNDPFITTDYMTYMFKYDTVHGQWKHHEVKVKDSKTLLFGEKEVAVFGCRNPEEIPWAAAGAEYVVESTGVFTDKDKAAAHIKGGAKKVIISAPSKDAPMFVCGVNEKEYKSDIDIVSNASCTTNCLAPLAKVINDRFGIVEGLMTTVHAMTATQKTVDGPSSKDWRGGRAASFNIIPSSTGAAKAVGKVLPELNGKLTGMAFRVPTVDVSVVDLTVRLAKPATYDQIKAAIKEESEGNLKGILGYVDEDLVSTDFQGDNRSSIFDAKAGIALNDHFVKLVSWYDNEWGYSTRVVDLIRHMHSTK
notes: recombinant wheat gapC (NCBI EF592180), homotetramer, E. coli
B1 showed a K0.5 of 136 µM.
